B1: Izumo sperm-egg fusion protein 1 (Homo sapiens), Q8IYV9-1 (parent)
chain: MGPHFTLLCAALAGCLLPAEGCVICDPSVVLALKSLEKDYLPGHLDAKHHKAMMERVENAVKDFQELSLNEDAYMGVVDEATLQKGSWSLLKDLKRITDSDVKGDLFVKELFWMLHLQKETFATYVARFQKEAYCPNKCGVMLQTLIWCKNCKKEVHACRKSYDCGERNVEVPQMEDMILDCELNWHQASEGLTDYSFYRVWGNNTETLVSKGKEATLTKPMVGPEDAGSYRCELGSVNSSPATIINFHVTVLPKMIKEEKPSPNIVTPGEATTESSISLQPLQPEKMLASRLLGLLICGSLALITGLTFAIFRRRKVIDFIKSSLFGLGSGAAEQTQVPKEKATDSRQQ
B2: Sperm-egg fusion protein Juno (Homo sapiens), A6ND01-1 (parent)
chain: MACWWPLLLELWTVMPTWAGDELLNICMNAKHHKRVPSPEDKLYEECIPWKDNACCTLTTSWEAHLDVSPLYNFSLFHCGLLMPGCRKHFIQAICFYECSPNLGPWIQPVGSLGWEVAPSGQGERVVNVPLCQEDCEEWWEDCRMSYTCKSNWRGGWDWSQGKNRCPKGAQCLPFSHYFPTPADLCEKTWSNSFKASPERRNSGRCLQKWFEPAQGNPNVAVARLFASSAPSWELSYTIMVCSLFLPFLS

Variants of: B1
Settings: with IZUMO1R

| Variant | effect of a mutation on the interaction |
| --- | --- |
| W148A | decreasing interaction strength |

Variants of: B2
Settings: with IZUMO1, Q8IYV9-1

| Variant | effect of a mutation on the interaction |
| --- | --- |
| W62A | decreasing interaction strength |
| L81A | decreasing interaction strength |
| M83A | decreasing interaction strength |

— IntAct's records for PubMed 27309808
